The text below walks through data of patent publication US5108916A, “Process for stereoselectively hydrolyzing, transesterifying or esterifying with immobilized isozyme of lipase from Candida rugosa” (priority 1989, dated 1992).

Experiment [1] can be described thus: Hydrolysis of ketoprofen esters by lipases, acid by HPLC, ee via diastereomeric amides. Type of experiment: biochemical. The protocol: To a solution of 9ml of 100mM ammonium phosphate (pH 5.5) in 50 ml Erlenmeyer flask a weighed amount of ester (either directly or dissolved in 200 ul DMF) was added. A solution of the weighed amount of enzyme in 1 ml of the same buffer was added. The mixture was agitated in a rotary shaker at 250 RPM at 35° C. typically for 22 hours. The reaction mixture was acidified with 8 drops 6(N) HCl to pH 1.5-2.0, extracted with CHCl3 (2×10 ml). The CHCl3 solution was analyzed by HPLC to determine the percent of acid produced in the hydrolysis.
The CHCl3 extract (5 ml) of the hydrolysis reaction was dried over anhydrous Na2 SO4 and filtered. The filtrate was cooled to 0° C. in stoppered vials and 100 ul of N-methylmorpholine, followed by 100 ul of isobutyl chloroformate were added. After gently shaking at 0° C. for 10 minutes, 100 ul of D-(+)-1-phenylethylamine was added and gently shaking at 0° C. was continued for 5 minutes. The reaction mixture was then shaken at room temperature for 5 minutes. The reaction mixture was washed with water (5 ml), 1(N) HCl (5 ml) and again with water (5 ml). The diastereomeric amides produced were then analyzed by HPLC on a column as specifically noted to determine the ee (%S-%R) of the acid produced by enzymatic hydrolysis of the esters.
Ketoprofen esters (50 mg) were hydrolyzed as above. HPLC analysis for the amount of acid produced for the ketoprofen monoglyceride and ketoprofen ethylene glycol ester hydrolysis were performed on Partisil 5 ODS-3 RAC column (9.4 mm×100 mm, Whatman) using CH3 OH: 10mM (NH4)H2 PO4 (60:40) at 4 ml/min and monitoring at 254 nm. HPLC analysis of the acid produced in the hydrolysis of the other esters were done on ODS-3 RAC column using CH3 OH: 10 mM (NH4)H2 PO4 (80:20) at 2ml/min and monitoring at 254 nm. The enantiomeric excess of the ketoprofen produced for each hydrolysis was determined by analysis of the amides by HPLC on ODS-3 RAC column using CH3 OH:10 mM (NH4)H2 PO4 (60:40) at 4 ml/min and monitoring at 254 nm. […]
To determine whether oleic acid could be used to enhance the rate/selectivity using other lipase and/or substrates, the following experiment was performed. 50 mg of either the diethylene glycol ester, triethylene glycol monomethyl ester, monoglyceride ester, or ethylene glycol ester was placed in 50 ml Erlenmeyer flasks. To this was added 50 mg of Lipase MY, 50 mg of the Mucor miehei lipase, 2.5 mg of the Candida cylindracea lipase (Biocatalyst), or 5 mg of lipase OF, all in 1 ml of buffer. 10 ul of pig liver esterase was also used. Oleic acid was added to the flasks at 200 ul. Buffer was added to a final volume of 10 ml, and the flasks were incubated at 35.C, 250 rpm, acidified, and extracted with CHCl3 and analyzed by HPLC as in Example 18.

The nature of experiment [2]: Hydrolysis of R,S-HPPA methyl ester by free lipase or isozyme in aqueous buffer, R and S acids by HPLC. Type of experiment: biochemical. The protocol: Lipase MY (Meito Sangyo), 340mg, 4g of R,S-HPPA methyl ester, and 200ml of 20mM KH2 PO4 (adjusted to pH 6.5) were mixed, with shaking, for 5.5 hours.
Analysis of the acid formed was carried out by extraction of the ester after adjustment of the aqueous solution to pH 6.5 (a slight pH drop occurs on hydrolysis) with CH2 Cl2 followed by adjusting the pH to 2 and extraction of the acid with ethyl acetate. The solution was evaporated to dryness, taken up in water and analyzed by HPLC with a Macherey Nagel-Duren Resolvosil BSA- column using 5% n-propanol, 10mM KH2 PO4, pH 5 at 2.7ml/min with detection at 220nm. At that time 35% of the R, S-ester was converted to the acid. The ratio of R and S acids was 94% R and 6% S.
Lipase MY (Meito Sangyo), Candida lipase B (Biocatalyst, Ltd), lipase OF (Meito Sangyo), and Lipase AY (Amano) were compared for stereoselectivity for production of R-HPPA from R,S-HPPA methyl ester. The preparations, in amounts shown in Table I, were added to 50 ml of 20 mM HPPA methyl ester in 50 mM KH2 PO4 pH 6.5. […] The ratio of R to S acid was determined by HPLC as described in Example 3 at approximately 16% hydrolysis of the ester.
Two hundred mls of KH2 PO4 (pH 6.5) was combined with 400 mg HPPA-Me and 500 units of T. californica acetylcholine esterase. The reaction mixture was shaken for 24 hours and then sampled and analyzed as in Example 3. […]

[3] abbreviates: diethylene glycol ester, enzyme alone.
[4] abbreviates: ethylene glycol ester, + oleic acid.
Setting [5] is: ethylene glycol ester, enzyme alone.
Where [6] appears, read: monoglyceride ester, + oleic acid.
Setting [7] is: monoglyceride ester, enzyme alone.
Where [8] appears, read: monomethyl triethylene glycol ester, + oleic acid.
[9] abbreviates: monomethyl triethylene glycol ester, enzyme alone.

B1: Mucor miehei: Mucor miehei lipase (protein, UniProt P19515 95-363, looked up)
Lipase: SIDGGIRAATSQEINELTYYTTLSANSYCRTVIPGATWDCIHCDATEDLKIIKTWSTLIYDTNAMVARGDSEKTIYIVFRGSSSIRNWIADLTFVPVSYPPVSGTKVHKGFLDSYGEVQNELVATVLDQFKQYPSYKVAVTGHSLGGATALLCALDLYQREEGLSSSNLFLYTQGQPRVGDPAFANYVVSTGIPYRRTVNERDIVPHLPPAAFGFLHAGEEYWITDNSPETVQVCTSDLETSDCSNSIVPFTSVLDHLSYFGINTGLCT
B1: the “% ee (R = R-acid)” value came to 2R in experiment [1] (diethylene glycol ester, + oleic acid); 41R in experiment [1] (setting [3]); 42R in experiment [1] (setting [4]); 54R in experiment [1] (setting [5]); 35R in experiment [1] (setting [6]); 40R in experiment [1] (setting [7]). In addition, the “% ee (R = R-acid)” value in experiment [1] (setting [8]) amounted to 1R; in experiment [1] (setting [9]), 36R. Also, the “% Acid” value in experiment [1] (diethylene glycol ester, + oleic acid 200 ul) stood at 20%; in experiment [1] (setting [3]), 24%; in experiment [1] (setting [4]), 10%; in experiment [1] (setting [5]), 17%; in experiment [1] (setting [6]), 4%; in experiment [1] (setting [7]) it was 20%. Besides, the “% Acid” value in experiment [1] (setting [8]) is reported as 6%; in experiment [1] (setting [9]) it was 26%.

B2: acetylcholinesterase of T. californica: acetylcholine esterase from Torpedo californica (protein, UniProt P04058 22-564, looked up)
Acetylcholinesterase: DDHSELLVNTKSGKVMGTRVPVLSSHISAFLGIPFAEPPVGNMRFRRPEPKKPWSGVWNASTYPNNCQQYVDEQFPGFSGSEMWNPNREMSEDCLYLNIWVPSPRPKSTTVMVWIYGGGFYSGSSTLDVYNGKYLAYTEEVVLVSLSYRVGAFGFLALHGSQEAPGNVGLLDQRMALQWVHDNIQFFGGDPKTVTIFGESAGGASVGMHILSPGSRDLFRRAILQSGSPNCPWASVSVAEGRRRAVELGRNLNCNLNSDEELIHCLREKKPQELIDVEWNVLPFDSIFRFSFVPVIDGEFFPTSLESMLNSGNFKKTQILLGVNKDEGSFFLLYGAPGFSKDSESKISREDFMSGVKLSVPHANDLGLDAVTLQYTDWMDDNNGIKNRDGLDDIVGDHNVICPLMHFVNKYTKFGNGTYLYFFNHRASNLVWPEWMGVIHGYEIEFVFGLPLVKELNYTAEEEALSRRIMHYWATFAKTGNPNEPHSQESKWPLFTTKEQKFIDLNTEPMKVHQRLRVQMCVFWNQFLPKLLNATACDGELSS
Take B2: the “stereoselective hydrolysis of HPPA-Me to R-HPPA” value in experiment [2] is on record as “did not stereoselectively hydrolyze”. Also, the “hydrolyzing activity on HPPA-Me” value in experiment [2] (500 units, 400 mg HPPA-Me, pH 6.5, 24 hours) was “Very little hydrolyzing activity”.
